Laboratory results as given in paper PMC8130932 (PLoS Pathogens, 2021).

T1: Human coronavirus OC43 spike glycoprotein S1+S2 extracellular domain (Human coronavirus OC43, AVR40344.1 (by …))
T1 construct: source: bought: Sino Biologicals
T1 chain: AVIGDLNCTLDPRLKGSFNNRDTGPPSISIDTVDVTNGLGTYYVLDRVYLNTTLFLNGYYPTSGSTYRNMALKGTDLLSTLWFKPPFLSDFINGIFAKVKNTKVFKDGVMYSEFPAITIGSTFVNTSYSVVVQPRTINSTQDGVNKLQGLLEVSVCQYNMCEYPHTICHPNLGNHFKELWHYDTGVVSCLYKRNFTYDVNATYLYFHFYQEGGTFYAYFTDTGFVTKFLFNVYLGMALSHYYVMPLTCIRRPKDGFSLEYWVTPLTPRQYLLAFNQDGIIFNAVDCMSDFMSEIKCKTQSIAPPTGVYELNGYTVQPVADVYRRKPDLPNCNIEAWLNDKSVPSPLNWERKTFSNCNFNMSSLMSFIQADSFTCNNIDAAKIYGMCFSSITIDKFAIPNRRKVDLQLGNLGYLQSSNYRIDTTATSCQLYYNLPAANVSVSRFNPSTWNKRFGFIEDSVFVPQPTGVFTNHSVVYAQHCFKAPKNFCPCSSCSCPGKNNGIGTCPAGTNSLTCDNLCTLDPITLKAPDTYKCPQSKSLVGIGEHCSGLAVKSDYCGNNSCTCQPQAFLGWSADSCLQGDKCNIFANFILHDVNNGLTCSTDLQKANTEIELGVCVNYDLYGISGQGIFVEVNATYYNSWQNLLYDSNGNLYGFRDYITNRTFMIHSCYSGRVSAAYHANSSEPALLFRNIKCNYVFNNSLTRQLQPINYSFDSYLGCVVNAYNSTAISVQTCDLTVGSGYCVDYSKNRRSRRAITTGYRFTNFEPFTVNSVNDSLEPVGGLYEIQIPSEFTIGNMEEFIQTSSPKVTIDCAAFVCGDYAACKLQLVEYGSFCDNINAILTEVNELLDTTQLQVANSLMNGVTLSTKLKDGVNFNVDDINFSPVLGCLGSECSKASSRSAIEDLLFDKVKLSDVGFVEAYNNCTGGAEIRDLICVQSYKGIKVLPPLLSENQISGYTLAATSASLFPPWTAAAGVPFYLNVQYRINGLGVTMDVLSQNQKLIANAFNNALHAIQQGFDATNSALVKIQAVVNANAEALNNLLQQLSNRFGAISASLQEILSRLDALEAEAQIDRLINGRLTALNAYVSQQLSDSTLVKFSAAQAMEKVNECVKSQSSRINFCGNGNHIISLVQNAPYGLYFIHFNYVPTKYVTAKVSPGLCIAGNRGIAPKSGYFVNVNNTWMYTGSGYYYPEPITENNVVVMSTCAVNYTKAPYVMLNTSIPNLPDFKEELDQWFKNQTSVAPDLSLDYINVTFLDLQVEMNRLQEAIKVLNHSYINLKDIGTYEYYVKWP


Columns and labels:
[1] = target: T2, SARS nucleocapsid, recombinant (SARS-CoV, reference sequence (strain …, UniProt P59595)); experiment: ELISA
T2 construct: source: bought: Sino Biologicals, baculovirus-insect cells

[2] = target: SARS-CoV-2 nucleocapsid, recombinant (SARS-CoV-2, reference sequence, UniProt P0DTC9); experiment: ELISA
[3] = target: T3, SARS-CoV-2 RBD (amino acids 340-538) on MDCK-SIAT1 cells (SARS-CoV-2 (so in the source)); experiment: flow cytometry on cells; settings: one partner purified
T3 construct: also called MDCK-RBD; source: MDCK-SIAT1, stably transduced (lentiviral vector), on the cell surface

[4] = target: T4, SARS-CoV-2 NTD on MDCK-SIAT1 cells (SARS-CoV-2 (so in the source)); experiment: flow cytometry on cells; settings: one partner purified
T4 construct: also called MDCK-NTD

[5] = target: T1, Human coronavirus OC43 spike …; experiment: ELISA
[6] = target: T5, MERS spike glycoprotein S1+S2 extracellular domain (MERS coronavirus, isolate EMC/2012 (by …, UniProt K0BRG7)); experiment: ELISA
T5 construct: source: bought: Sino Biologicals, baculovirus-insect cells

[7] = target: T6, SARS-CoV-2 spike S2 subunit, recombinant (SARS-CoV-2, reference sequence, UniProt P0DTC2); experiment: ELISA
T6 construct: source: bought: Sino Biologicals, baculovirus-insect cells

[8] = target: SARS-CoV-2 spike glycoprotein of wild-type virus, in infected Vero E6 cells (SARS-CoV-2 …, UniProt P0DTC2); experiment: cell-based or functional assay

Binder | OD450 [2] | binding result [3] | binding result [4] | OD450 [5] | OD450 [7] | PRNT EC50, wild-type SARS-CoV-2 (hCoV-19/England/02/2020) on Vero E6 cells [8] | also measured
EZ 11A (antibody, V domains shown, source: HEK293T, transfected; culture supernatant or purified) VH: EVQLVESGGGLVQPGGSLRLSCAASGFTFSSYWMSWVRQAPGKGLEWVANIKQDGSEKYYVDSVKGRFTISRDNAKNSLYLQMNSLRAEDTAVYYCARDDYSGSYYWEFDYWGQGTLVTVSS VL: QPVLTQSPSASASLGASVKLTCTLSSGHSSYAIAWHQQQPEKGPRYLMKLNSDGSHSKGDGIPDRFSGSSSGAERYLTISSLQSEDEADYYCQTWGTGIWVFGGGTKLTVL | 1.29 OD450 | – | – | – | – | – | OD450 [1]: 1.31 OD450
FJ 4E (antibody, V domains shown, source: HEK293T, transfected; culture supernatant or purified) VH: QVQLVESGPGLVKPSETLSLTCSVSGGSISSGTYYWSWIRQQPGKGLEWIGYIYNTGRPYYNPFLKSRITISVDSSKNQFSLKLTSVTAADTAVYYCARDEYDSSDSGIQGHWFDPWGQGTLVTVSS VL: AIRMTQSPSSLSASVGDRVTITCRTSQNINSFLNWYQQKPGKGPNLLIYGAFTLQSGVPSRFSGSGSGTDFTLTISSLQPEDFATYFCQQSYSTPWTFGQGTKVEIK | – | no binding | no binding | 1.68 OD450 | 0.91 OD450 | – | OD450 [6]: 1.08 OD450
EW 9C (antibody, V domains shown, source: HEK293T, transfected; culture supernatant or purified) VH: EVQLVESGGGVVQPGASLRLSCVASGFTFNNFGFHWVRQAPGKGLEWLAVISYEGSKTYYAESLKGRFTISRDTSKNTVYLQMNSLRAEDTAVYYCARATSIFWFGEGRNWFDPWGQGTMVTVSS VL: EIVLTQSPGTVSLSAGERATLSCRASQNVGTDLAWYVQRPGQAPRLLIYDTSNKATGIPARFSGRGSGTDFTLTIDSLEPEDFAVYYCQQRSNWPLTFGGGTKVEIR | – | – | – | 1.82 OD450 | 1.17 OD450 | 133 nM | –
FD 11E (antibody, V domains shown, source: HEK293T, transfected; culture supernatant or purified) VH: EVQLVESGGGLVKPGGSLRLSCAASGFTFSSYSMNWVRQAPGKGLEWVSSISSSSSYIYYADSVKGRFTISRDNAKNSLYLQMNSLRAEDTAVYYCASLAAAGPETYYYYGMDVWGQGTMVTVSS VL: not shown | – | no binding | no binding | – | – | 70 nM | –
FD 1E (antibody, V domains shown, source: HEK293T, transfected; culture supernatant or purified) VH: EVQLLESGGGLVKPGGSLRLSCAASGFTFSSYSMNWVRQAPGKGLEWVSSISSSSSYIYYADSVKGRFTISRDNAKNSLYLQMNSLRAEDTAVYYCASLAAAGPETYYYYGMDVWGQGTMVTVSS VL: not shown | – | – | – | – | – | 110 nM | –
FJ 1C (antibody, V domains shown, source: HEK293T, transfected; culture supernatant or purified) VH: QVQLQESGPGLVKPSETLSLTCTVSGYSISSGYYWGWIRQPPGKGLEWIGSIYHSGSTYYNPSLKSRVTISVDTSKNQFSLKLSSVTAADTAVYYCARDKALLWFGELFTNLFDYWGQGTLVTVSS VL: QSALTQPASVSGSPGQSITISCTGTSSDVGGYNYVSWYQQHPGKAPKLMIYEVSNRPSGVSNRFSGSKSGNTASLTISGLQAEDEANYYCSSYTSSSTLVFGGGTKLTVL | – | no binding | binds | – | – | 55.5 nM | –
FD 6D (antibody, V domains shown, source: HEK293T, transfected; culture supernatant or purified) VH: EVQLVESGPGLVKVSETLFLTCTVSGYSIGSGNYWGWIRQPPGKVLEWIGSTYHSGTTYYNPSLKSRVTISVDSSKNQFSLKLTSVTAADTAVYYCARDRLLAVHYDSRGYLVDYWGQGTMVTVSS VL: AIRMTQSPDSLAVSLGERATINCKSSQSIFYSSNNKNYLAWYQHKPGQPPKLLIYWASTRESGVPDRFSGSGSGTDFTLTISSLQAEDVAIYYCQQYYDIPRTFGQGTKVEIR | 1.73 OD450 | – | – | – | – | – | OD450 [1]: 1.19 OD450
FB 1E (antibody, V domains shown, source: HEK293T, transfected; culture supernatant or purified) VH: EVQLVESGAEVKKPGESLKISCQGSGYRFNSYWIAWVRQMPGKGLEWMGSIFPTDSDIRYNPSFQGQVTISADKSISIAYLQWSSLKASDTAIYYCARHWASMVRGVIRASHYYGMDVWGQGTTVTVSS VL: QSVLTQPPSASGSPGQSVTISCSGASSDIGDYNYVSWYQQLPGKAPKLLIYEVTKRPSGVPDRFSGSKSGNTASLTVSGLQADDEADYYCSSYAFGGSDIRVFGGGTKLAVL | – | – | – | 2.34 OD450 | 1.2 OD450 | 36 nM | OD450 [6]: 1.01 OD450
FB 9D (antibody, V domains shown, source: HEK293T, transfected; culture supernatant or purified) VH: QVQLVESGAEVKKPGESLKISCQGSGYRFNSYWIAWVRQMPGKGLEWMGSIFPTDSDVRYNPSFQGQVTISADKSISFAYLQWSSLKASDTAIYYCARHWASMVRGVIRASHYYGMDVWGQGTTVTVSS VL: QPVLTQPPSASGSPGQSVTISCSGASSDIGKYNYVSWYQQLPGKAPKLLIYEVTKRPSGVPDRFSGSKSGNTASLTVSGLQADDEADYYCSSYAFGGSDTRVFGGGTKLTVL | – | no binding | no binding | 2.13 OD450 | 1.27 OD450 | – | OD450 [6]: 1.5 OD450
EZ 4A (antibody, V domains shown, source: HEK293T, transfected; culture supernatant or purified) VH: EVQLVQSGAEVKKPGESLKISCKGSGYSFTSYWIGWVRQMPGKGLEWMGIIYPGDSDTRYSPSFQGQVTISADKSISTAYLQWSSLKASDTAMYYCARSPIAADLFDYWGQGTLVTVSS VL: not shown | 1.03 OD450 | – | – | – | – | – | –
FN 2C (antibody, V domains shown, source: HEK293T, transfected; culture supernatant or purified) VH: EVQLLESGGGVVQPGRSLRLSCAASGFNFNNYGMHWVRQAPGKGLEWVATISYEGSKKFYVDSVKGRFTISKDNSKNTLYLQMNSLRVDDTAFYYCAKRREIFWLGEPPLSDAFDFWGQGTMVTVSS VL: QSVLTQPPSVSGAPGQRVTISCTGSGSNIGAGYDVHWYQFLPGTAPQLLIYGNNNRPSGVPDRFSGSKSGTSASLAITGLQAEDEADYYCQSYDSSLSGSVFGGGTKLTVL | – | – | – | 2.2 OD450 | 1.15 OD450 | – | –
EZ 4C-1 (antibody, V domains shown, source: HEK293T, transfected; culture supernatant or purified) VH: EVQLVESGPGLVKPSETLSLTCTVSGGSVSSGNNYWSWIRQPPGKALEWIGYIYYSGSTKYNPSLKSRVTMSVGTSKNQFSLKVNSVTAADTAMYYCARAPSAPFGGLFDWILPKGINNWGQGTLVTVSS VL: EIVLTQSPSTLSASVGDRVTITCRTSQSIRSWLAWYQQKPGKAPKLLIFEASTLESGVPERFSGSGSGAEFTLTISSLQPDDFATYYCQQYNGYSYSFGQGTKVEIR | 0.6 OD450 | – | – | – | – | – | –
EY 2A (antibody, V domains shown, source: HEK293T, transfected; culture supernatant or purified) VH: QVQLVESGAEVTKPGDSLIISCKGSGYAFTQYWIGWVRQKPGKGLEWMAMVYPDSSAVFAGGASGVRYRPPFQGQVTISADTSVNTAYLQWDSLKASDTAMYYCVRQERGSNTWYAGNSWGQGTLVTVSS VL: DIVMTQSPLSLPVSPGEPASISCRSSQSLLHTDAYNYLDWYLQKPGQSPQLLIYLGSTRASGVPDRFSGSGSGTDFTLKISSVKAEDVGVYYCMQALQTPGTFGQGTKLEIK | 1.28 OD450 | – | – | – | – | – | OD450 [1]: 1.13 OD450
EY 3B (antibody, V domains shown, source: HEK293T, transfected; culture supernatant or purified) VH: EVQLVESGAEVTKPGESLIISCKGSGYAFTQYWIGWVRQKPGKGLEWMAMVYPDSSAVFAGGASGVRYRPPFQGQVTISADTSVNTAYLQWDSLKASDTAMYYCVRQERGSNTWYAGNSWGQGTLVTVFS VL: EIVLTQSPLSLPVSPGEPASISCRSSQSLLHTDAYNYLDWYLQKPGQSPQLLIYLGSTRASGVPDRFSGSGSGTDFTLKISSVKAEDVGVYYCMQALQTPGTFGQGTKVEIR | 1.22 OD450 | – | – | – | – | – | OD450 [1]: 1 OD450
FD 10A (antibody, V domains shown, source: HEK293T, transfected; culture supernatant or purified) VH: EVQLVESGGGLVQPGGSLRLSCAASGFTFSSYWMHWVRQAPGKGLVWVSRINSDGSSTSYADSVKGRFTISRDNAKNTLYLQMNSLRAEDTAVYYCANMAFDIWGQGTMVTVSS VL: not shown | – | no binding | no binding | – | 1.32 OD450 | 111 nM | –
